# From patent US20250326860A1
# How the values were obtained:
# [1] = biological target: human CD20 on cells (human B cells; Raji, SU-DHL-8, SU-DHL-4, A3KAW, NAMALWA) (human) (UniProt P11836); experiment: binding to human B cells
# [2] = biological target: human CD3 on cells (Jurkat cells, human T cells) (human) (UniProt P07766); experiment: binding to human CD8+ T cells
# [3] = biological target: human CD20 on cells (human B cells; Raji, SU-DHL-8, SU-DHL-4, A3KAW, NAMALWA) (human) (UniProt P11836); experiment: binding to Raji cells
# [4] = biological target: human CD3 on cells (Jurkat cells, human T cells) (human) (UniProt P07766); experiment: binding to human CD3+ T cells
# [5] = biological target: human CD3 on cells (Jurkat cells, human T cells) (human) (UniProt P07766); experiment: binding to human CD4+ T cells
# [6] = biological target: human CD3δε (human) (UniProt P07766); experiment: binding to CD3δ/ε protein dimer
# [7] = biological target: human CD20 on cells (human B cells; Raji, SU-DHL-8, SU-DHL-4, A3KAW, NAMALWA) (human) (UniProt P11836); experiment: flow cytometry, human B cells
# [8] = biological target: cynomolgus monkey CD20 on B cells (cynomolgus monkey) (UniProt M4ZHZ6); experiment: flow cytometry, monkey B cells
# human CD3 on cells (Jurkat cells, human T cells) (human), sequence (P07766 23-207): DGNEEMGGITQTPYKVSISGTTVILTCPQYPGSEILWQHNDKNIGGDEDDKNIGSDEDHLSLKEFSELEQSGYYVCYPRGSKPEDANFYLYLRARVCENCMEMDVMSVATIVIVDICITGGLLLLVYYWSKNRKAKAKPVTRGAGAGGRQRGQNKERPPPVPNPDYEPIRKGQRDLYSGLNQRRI
# human CD20 on cells (human B cells; Raji, SU-DHL-8, SU-DHL-4, A3KAW, NAMALWA) (human), sequence (P11836 whole entry): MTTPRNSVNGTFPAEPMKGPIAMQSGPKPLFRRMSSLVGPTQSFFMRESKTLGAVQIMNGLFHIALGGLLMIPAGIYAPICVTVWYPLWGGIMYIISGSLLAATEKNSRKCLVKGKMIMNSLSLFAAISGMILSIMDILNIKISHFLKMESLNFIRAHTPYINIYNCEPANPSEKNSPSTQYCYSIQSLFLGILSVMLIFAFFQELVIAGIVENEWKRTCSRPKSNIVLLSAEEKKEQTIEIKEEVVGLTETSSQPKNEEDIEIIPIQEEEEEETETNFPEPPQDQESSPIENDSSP
Substance,EC50 [1],EC50 [2],EC50 [3],EC50 [4],EC50 [5],EC50 [6],max MFI [7],max MFI [8]
Plamotamab analog (bispecific antibody),200 nM,10.1 nM,135 nM,11.8 nM,13.1 nM,2.1 nM,–,–
IgG1 isotype control antibody,–,> 2000 nM,> 8000 nM,–,> 2000 nM,–,1650 MFI,60.4 MFI
